Measured values reported in patent US20210087291A1 (Hoffmann-La Roche, published 2021).
Values joined by “and” are separate entries in the source; they are usually repeats but may differ in a detail not shown here. Identical values can stand only once.

B1: Tim3_0022 (antibody, V domains shown)
VH: EVQLQESGPSLVKPSQTLSLTCSVTGDSIASAYWNWIRKFPGNKLEYMGYINYSGSTYYNPSLKSRISITRDTSQNQYYLQLNSVTTEDTATYYCVTGDYFDYWGRGTTLTVSS
VL: DIQMTQSPSSLSAYLGGKVTITCKARQDVRKNIGWYQHKPGKGPRLLIWYTSTLQSGIPSRFSGSGSGRDYSFNINNLEPEDIATYYCLQYDNLPFTFGTGTKLEIR
B2: 14E4 IgG (antibody, V domains shown)
VH: not shown
VL: EIVLTQSPGTLSLSPGERATLSCRASQSVSSSYLAWYQQKPGQAPRLLIYGASSRATGIPDRFSGSGSGTDSTLTISRLEPEDFAVYYCQQPTSSPITFGQGTKVEIK
notes: human IgG1
B3: 14E4 Fab (Fab, V domains shown)
VH: not shown
VL: EIVLTQSPGTLSLSPGERATLSCRASQSVSSSYLAWYQQKPGQAPRLLIYGASSRATGIPDRFSGSGSGTDSTLTISRLEPEDFAVYYCQQPTSSPITFGQGTKVEIK
B4: 9D11 Fab (Fab, V domains shown)
VH: QVQLVQSGAEVKKPGASVKVSCKASGYTFTSYYMHWVRQAPGQGLEWMGIINPSGGPTSYAQKFQGRVTMTRDTSTSTVYMELSSLRSEDTAVYYCARGDFAWLDYWGQGTLVTVSS
VL: not shown
B5: 36F2 Fab (Fab, V domains shown)
VH: QVQLVQSGAEVKKPGASVKVSCKASGYTFTSYYMHWVRQAPGQGLEWMGIINPSGGSTSYAQKFQGRVTMTHDTSTSTVYMELSSLRSEDTAVYYCARSFFTGFHLDYWGQGTLVTVSS
VL: EIVLTQSPGTLSLSPGERATLSCRASQSVSSSYLAWYQQKPGQAPRLLIYGASSRATGIPDRFSGSGSGTDFTLTISRLEPEDFAVYYCQQYTNEHYYTFGQGTKVEIK
B6: Tim3_0030 (antibody, V domains shown)
VH: QIQLVQSGPELKKPGETVKISCKASGYPFSEYSIHWVKQAPGKGLKWMVYVNTETGQPIVGDDFRGRFVLSLETSASTAYLQINNLKNEDTATYFCGGGGYPAYWGQGTLVTVSA
VL: DVLMTQTPLSLPVSLGDQASISCRSSRSIVHSSGNTYLEWYLQKPGQSPKLLIYKVSNRFSGVPDRFSGSGSGTDFTLNISRVEAEDLGVYYCFQDSHVPFTFGTGTKLEIK
B7: Tim3_0016 variant (Tim3_0018) (antibody, V domains shown)
VH: QVTLKESGPGILQPSQTLSLTCSFSGFSLSTSGMSVGWIRQPSGKGLEWLAHIWLNDDVFFNPALKRRLTISKDTSNNQVFLQIASVVTADTATYYCVRANGYLYALDYWGQGISVTVSS
VL: QIVLTQSPAIMSASPGQKVTITCSASSSVNYTQWYQQKLGSSPKLWIYDAFKLAPGVPARFSGSGTGTSYSLTISSMEAEDAASYFCHQWSSYPWTFGGGTKLEIK
notes: also called TIM3-0016 variant (0018); aTim3 0018
B8: Tim3_0016 (antibody, V domains shown)
VH: QVTLKESGPGILQPSQTLRLTCSFSGFSLSTSGMSVGWIRQPSGKGLEWLAHIWLNDDVFFNPALKSRLTISKDTSNNQVFLQIASVVTADTATYYCVRANGYLYALDYWGQGTSVTVSS
VL: QIVLTQSPAIMSASPGQKVTITCSASSSVNYTQWYQQKLGSSPKLWIYDAFKLAPGVPARFSGSGTGTSYSLTISSMEAEDAASYFCHQWSSYPWTFGGGTKLEIK
notes: also called clone 0016

Legend:
[1] = target: T1, cynomolgus TIM-3 on isolated cyno CD14+ monocytes (cynomolgus); test: flow cytometry, cyno CD14+ monocytes cyno1
T1 construct: whole, on cells

[2] = target: T1, cynomolgus TIM-3 on isolated cyno CD14+ …; test: flow cytometry, cyno CD14+ monocytes cyno2
[3] = target: T1, cynomolgus TIM-3 on isolated cyno CD14+ …; test: flow cytometry, cyno CD14+ monocytes cyno3
human TIM-3 on cells [4] = target: T2, human TIM-3 on cells (human, UniProt Q8TDQ0 22-301); test: flow cytometry, human CD14+ monocytes donor1
T2 construct: also called CHO-Tim3; rec CHOK1 cells expressing huTIM-3

human TIM-3 on cells [5] = target: T2, human TIM-3 on cells; test: flow cytometry, human CD14+ monocytes donor2
human TIM-3 on cells [6] = target: T2, human TIM-3 on cells; test: flow cytometry, human CD14+ monocytes donor3
Excerpt: CD14+ Monocytes were isolated from anticoagulated peripheral blood of healthy donors by density gradient centrifugation using Ficoll-Paque (GE Healthcare) (see General Protocols in the User Manuals or visit www.miltenyibiotec.com/protocols) and subsequent positive selection via CD14 MicroBeads. First the CD14+ cells are magnetically labeled with CD14 MicroBeads. Then the cell suspension is loaded onto a MACS® Column which is placed in the magnetic field of a MACS Separator. The magnetically labeled CD14+ cells are retained in the column. The unlabeled cells run through, this cell fraction is depleted of CD14+ cells. After removal of the column from the magnetic field, the magnetically retained CD14+ cells can be eluted as the positively selected cell fraction. After centrifugation at 200×g for 10 min at room temperature the monocytes were harvested and used directly in binding assay or resuspended in freezing medium (10% DMSO, 90% FCS) at 1.0E+07 cells/ml and stored in liquid nitrogen.
1×10⁵ CD14+ isolated human monocytes (50 μl/well) were put into 98 well-v bottom MTP in fresh culture medium and incubated with Redimune® NF Liquid for 15 min at RT to block unspecific binding. […] After washing and centrifugation MFI signals of stained cells were analyzed by BD Biosciences FACSCanto flow cytometer.

monomeric human Tim3-ECD [7] = target: T3, monomeric human Tim3-ECD (human, UniProt Q8TDQ0 22-202); test: SPR Biacore, antibody captured by anti-mouse IgG
T3 construct: also called huTim3
Description: (§1) Therefore, an anti-mouse IgG was immobilized by amine coupling to the surface of a (Biacore) CM5 sensor chip. The samples were then captured and hu/cy Tim3-ECD was bound to them. The sensor chip surface was regenerated after each analysis cycle. The equilibrium constant KD was finally gained by fitting the data to a 1:1 langmuir interaction model.
(§2) Flow cell temperature was set to 25° C. and sample compartment temperature to 12° C. The system was primed with running buffer. The samples were injected for 30 seconds with a concentration of 200 μg/ml and bound to the spots 1 and 5 of each flow cell, allowing the measurement of eight samples in parallel. Then a complete set of different (monomeric cyno, monomeric human and huFc fused dimeric human Tim3-ECD) concentrations (s. Table X) was injected over each sample for 240 s followed by a dissociation time of 30/1800 s (s. Table 1). Each analysis cycle (sample capture, spot 1 and 5—Tim3 ECD injection) was then regenerated with a 30 seconds long injection of Glycine-HCl pH 1.7. The flow rate was set to 30 μl/min for the whole run. Finally, the double referenced data was fitted to a 1:1 langmuir interaction model with the Biacore B4000 Evaluation Software.

monomeric cyno Tim3-ECD = target: T4, monomeric cyno Tim3-ECD (cynomolgus, UniProt A0A2K5U3G7 22-195); test: SPR Biacore, antibody captured by anti-mouse IgG
T4 construct: extracellular domain; also called cyTim3
T4 sequence: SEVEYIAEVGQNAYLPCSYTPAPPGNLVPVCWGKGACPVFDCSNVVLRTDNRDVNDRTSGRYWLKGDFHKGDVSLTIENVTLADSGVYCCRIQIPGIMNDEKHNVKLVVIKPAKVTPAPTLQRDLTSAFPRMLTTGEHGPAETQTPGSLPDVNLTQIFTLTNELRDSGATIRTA
Description: as §1, §2

[8] = target: T5, human FolR1 ECD-AcTev-Fcknob-Avi tag + Fc hole, biotinylated monomeric Fc fusion (human, UniProt P0DOX5 223-449 = IgG part); test: SPR, IgG single injection
T5 construct: also called huFolR1; huFolR1-Fc

[9] = target: T6, cynomolgus FolR1 ECD-AcTev-Fcknob-Avi tag + Fc hole, biotinylated monomeric Fc fusion (cynomolgus, UniProt P0DOX5 223-449 = IgG part); test: SPR, IgG single injection
T6 construct: also called cyFolR1; cyno FolR1-Fc

[10] = target: T7, human FolR2 ECD-AcTev-Fcknob-Avi tag + Fc hole, biotinylated monomeric Fc fusion (human, UniProt P0DOX5 223-449 = IgG part); test: SPR, IgG single injection
T7 construct: also called huFolR2; FolR2-Fc

[11] = target: T8, human FolR3 ECD-AcTev-Fcknob-Avi tag + Fc hole, biotinylated monomeric Fc fusion (human, UniProt P0DOX5 223-449 = IgG part); test: SPR, IgG single injection
T8 construct: also called huFolR3; FolR3-Fc

[12] = target: T5, human FolR1 ECD-AcTev-Fcknob-Avi tag + …; test: SPR ProteOn, Fab analyte
Description: (§3) Immobilization of antigens (ligand): Recombinant antigens were diluted with PBST (10 mM phosphate, 150 mM sodium chloride pH 7.4, 0.005% Tween 20) to 10 μg/ml, then injected at 30 μl/minute in vertical orientation. Injection of analytes: For ‘one-shot kinetics’ measurements, injection direction was changed to horizontal orientation, two-fold dilution series of purified Fab (varying concentration ranges) were injected simultaneously along separate channels 1-5, with association times of 150 or 200 s, and dissociation times of 200 or 600 s, respectively. Buffer (PBST) was injected along the sixth channel to provide an “in-line” blank for referencing. Association rate constants (kₒₙ) and dissociation rate constants (koff) were calculated using a simple one-to-one Langmuir binding model in ProteOn Manager v3.1 software by simultaneously fitting the association and dissociation sensorgrams. The equilibrium dissociation constant (KD) was calculated as the ratio koff/kₒₙ.

[13] = target: T6, cynomolgus FolR1 ECD-AcTev-Fcknob-Avi …; test: SPR ProteOn, Fab analyte
Description: as §3

[14] = target: T7, human FolR2 ECD-AcTev-Fcknob-Avi tag + …; test: SPR ProteOn, Fab analyte
Description: as §3

[15] = target: T8, human FolR3 ECD-AcTev-Fcknob-Avi tag + …; test: SPR ProteOn, Fab analyte
Description: as §3

[16] = target: T9, murine FolR1 ECD-AcTev-Fcknob-Avitag + Fc hole, biotinylated monomeric Fc fusion (murine, UniProt P0DOX5 223-449 = IgG part); test: SPR ProteOn, Fab analyte
T9 construct: also called muFolR1; murine FolR1-Fc
Description: as §3

human TIM-3 on cells [17] = target: T2, human TIM-3 on cells; test: cell-based or functional assay
human TIM-3 on cells [18] = target: T2, human TIM-3 on cells; test: cell-based or functional assay; remark: listed apart in the source
[19] = target: T10, huFc fused dimeric human Tim3-ECD (human, UniProt Q8TDQ0 22-202); test: SPR Biacore, antibody captured by anti-mouse IgG
T10 construct: also called huTim3Fc; bivalent Tim3
Description: as §1, §2

cynomolgus Tim3 (ELISA) [20] = target: T11, cynomolgus Tim3 (ELISA) (cynomolgus, UniProt A0A2K5U3G7 22-193); test: ELISA, cyno Tim3
T11 construct: also called Biochem Cyno; cyno TIM3
T11 sequence: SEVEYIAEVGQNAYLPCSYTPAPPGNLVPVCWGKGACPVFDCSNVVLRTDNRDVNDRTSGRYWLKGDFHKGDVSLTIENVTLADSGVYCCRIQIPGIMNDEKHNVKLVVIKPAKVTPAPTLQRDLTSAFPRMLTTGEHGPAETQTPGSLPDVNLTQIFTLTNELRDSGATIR

Tim3-ECD-His-Biotin [21] = target: T12, Tim3-ECD-His-Biotin (human, UniProt Q8TDQ0 22-202); test: ELISA, human Tim3
T12 construct: also called human Tim3 (ELISA); Biochem Human

human TIM-3 on cells [22] = target: T2, human TIM-3 on cells; test: cell ELISA, CHO-Tim3
[23] = target: T10, huFc fused dimeric human Tim3-ECD; test: SPR Biacore, bivalent Tim3
Description: as §1, §2

Tim3-ECD-His-Biotin [24] = target: T12, Tim3-ECD-His-Biotin; test: ELISA on Tim3-ECD-His-Biotin
Description: After washing (3×90 μl/well with PBST-buffer) 25 μl aTim3 samples or diluted (1:2 steps) reference antibody aTim3 F38-2E2 (Biolegend) was added and incubated 1 h at RT. After washing (3×90 μl/well with PBST-buffer) 25 μl/well sheep-anti-mouse-POD (GE NA9310V) was added in 1:9000 dilution and incubated at RT for 1 h while shaking at 400 rpm rotation. After washing (4×90 μl/well with PBST-buffer) 25 μl/well TMB substrate (Calbiochem, #CL07) was added and incubated until OD 1.5-2.5. Then the reaction was stopped by addition of 25 μl/well 1N HCL-solution.

monomeric human Tim3-ECD [25] = target: T3, monomeric human Tim3-ECD; test: SPR Biacore, monovalent Tim3
Description: as §1, §2

human TIM-3 on cells [26] = target: T2, human TIM-3 on cells; test: cell ELISA, CHO-K1 expressing human Tim3
Description: Then the reaction was stopped by addition of 25 μl/well 1N HCL-solution.

cynomolgus Tim3 (ELISA) [27] = target: T11, cynomolgus Tim3 (ELISA); test: ELISA, cyno Tim3; EC50 relative to the sample's max value
Tim3-ECD-His-Biotin [28] = target: T12, Tim3-ECD-His-Biotin; test: ELISA, human Tim3; EC50 relative to the sample's max value
human TIM-3 on cells [29] = target: T2, human TIM-3 on cells; test: cell ELISA, CHO-Tim3; EC50 relative to the sample's max value

Binder	MFI [1] [MFI]	MFI [2] [MFI]	MFI [3] [MFI]	specific binding MFI (human TIM-3 on cells [4]) [MFI]	specific binding MFI (human TIM-3 on cells [5]) [MFI]	specific binding MFI (human TIM-3 on cells [6]) [MFI]	Kd (monomeric human Tim3-ECD [7]) [nM]	Kd (monomeric cyno Tim3-ECD) [nM]	binding result [14]	binding result [15]	IFN-gamma release in MLR at 1 µg/ml, % of IL-2 control (human TIM-3 on cells [17]) [%]	IFN-gamma release in MLR at 10 µg/ml, % of IL-2 control (human TIM-3 on cells [17]) [%]	further results
B1	115	134	138	1470	1110	1240	126	28.4	–	–	–	–	–
B2	–	–	–	–	–	–	–	–	–	–	–	–	binding result [8]: no binding (tested: 500 nM); binding result [9]: no binding (tested: 500 nM); binding result [10]: no binding (tested: 500 nM); binding result [11]: no binding (tested: 500 nM)
B3	–	–	–	–	–	–	–	–	no binding	no binding	–	–	binding result [12]: no binding; binding result [13]: no binding
B4	–	–	–	–	–	–	–	–	no binding	no binding	–	–	Kd [12]: 8.64 nM; Kd [13]: 5.29 nM; binding result [16]: no binding
B5	–	–	–	–	–	–	–	–	no binding	no binding	–	–	Kd [12]: 1810 nM; Kd [13]: 1640 nM; Kd [16]: 737 nM
B6	119	163	144	1410	419	466	3.11	–	–	–	3	4	IFN-gamma release in MLR at 40 µg/ml, % of IL-2 control (human TIM-3 on cells [17]): 14%; IC50 cytotoxicity (anti-mFc Fab-PE24 sandwich), RPMI-8226 (human TIM-3 on cells [18]): > 64 nM; Kd [19]: 1.28 nM
B7	301	480	417	2330	1820	1940	3.4	41.9	–	–	12	30	inflexion point (cynomolgus Tim3 (ELISA) [20]): 14.6 ng/mL; inflexion point (Tim3-ECD-His-Biotin [21]): 15.3 ng/mL; inflexion point (human TIM-3 on cells [22]): 29.4 ng/mL; IFN-gamma release in MLR at 40 µg/ml, % of IL-2 control (human TIM-3 on cells [17]): 36%; Kd [23]: 1.1 nM; EC50 (Tim3-ECD-His-Biotin [24]): 0.56 nM and 0.094 µg/mL; Kd (monomeric human Tim3-ECD [25]): 3.4 nM; EC50 (human TIM-3 on cells [26]): 0.52 nM and 0.087 µg/mL; Kd [19]: 1.11 nM; EC50 (cynomolgus Tim3 (ELISA) [27]): 0.0146 mg/L; EC50 (Tim3-ECD-His-Biotin [28]): 0.0161 mg/L; EC50 (human TIM-3 on cells [29]): 0.0264 mg/L
B8	157	177	187	2120	1630	1690	–	21.6	–	–	7	22	–
